The source of these data is article PMC10837352.

The target of this test is N‐terminal TadA‐8e (split site R74) fused to nMagHigh1 (UniProt P68398).

Regarding “pMag fused to C‐terminal TadA‐8e (split site R74) and nCas9 (from UniProt P68398 75-167)”, the adenine base editing at the ABES4 and ABES6 targets in E. coli DH10B, level 2‐BLABE (nMagHigh1‐pMag), in the absence of blue light, Sanger sequencing was 3%; the adenine base editing at the ABES4 and ABES6 targets in E. coli DH10B, level 2‐BLABE (nMagHigh1‐pMag), in the presence of blue light (10 mW cm^−2, 6 h), Sanger sequencing amounted to 90%.
